Source: a protein production outcome set (Wang et al. 2014)

Assay: label from the status in PepcDB records

| Sequence | protein production |
| --- | --- |
| MSNLPFHQFCGTEGYVASRALQDVVNVAIALERPLLLKGEPGTGKTLLAYHIAKALGMEIILWNVKSTTKARDGLYTYDTVQRLNDARFGDGDVRDIRHYIKLGPLGRAFGSAERVVLLIDEVDKADIEFPNDLLFELDEMRFHVLETDEWVSAAHRPVVIVTSNSEKELPDAFLRRCVFHYIDFPDETQMRAIIDVHFPDLPAELMRSACKVFYGLREVPGLRKRPSTSELLDWIRVLLASGARLPEEETPALQSVPFLGALVKIQEDADILAHHASRSADVRTAGRRFFRLEHHHHHH | failed |
| MATAFSSLRARLFALLLLALLLLLAPLAWLSAREAERAASEDLRRALYTRLYLLQAEGVQDEERLLLELFRLAQLFGGGVGFVLREGEARFTQLGDWPLPPGLPAALAAEGVYQGVFRGTLYVVLAQGGLAYGLAVPLEGVSGLGQRLLARYALWGGGLLLGVFLLAALALSWTLRPLRDLEKALRARAPEDLSPLPDPGLAELRPVVAALNALFARVGRLLAELAEKEEAARRFARHASHELRTPLTALKGYLEVLRRKNEPRALEGALREAGRMEALLAGLLRLSRLEALPPQRVPLDLRAFLEAQGLEVQGEGRVLADPELLALAVENVLENARRHGRLPVRAELSREGEGVWVWLVDAGPGFPEDLLPRVLEPFVHGGKGTGLGLALVAAVARAHGGRVRVENRGGAGVGLYLPLAPLKVSPGVPFGEGG | not failed |
| MQFQIGDMVARKSYQMDVLFRIIGIEQTSKGNSIAILHGDEVRLIADSDFSDLVAVKKDEQMMRKKKDESRMNESLELLRQDYKLLREKQEYYATSQYQHQEHYFHMPGKVLHLDGDEAYLKKCLNVYKKIGVPVYGIHCHEKKMSASIEVLLDKYRPDILVITGHDAYSKQKGGIDDLNAYRHSKHFVETVQTARKKIPHLDQLVIFAGACQSHFESLIRAGANFASSPSRVNIHALDPVYIVAKISFTPFMERINVWEVLRNTLTREKGLGGIETRGVLRIGMPYKSN | not failed |
| MKTNAGRFFEDYRLGETIAHAVPRTVSGGERALYHALYPARHALSSSDEFARACGLPAAPVDELMAFHLVFGKTVPDISLNAVANLGYAEGRWLKPVFPGDTLRAESTVIGLKENSNGASGVVWVRTRGLNQQGEAVLSYVRWVMVRKRDTAAPAPAPTVPELAGSVAASDLVIPEGLSFTDYDLTLAGEPHRWGDYAVGEKIDHVDGVTVEESEHMLATRLWQNTAKVHFDATNRPDGRRLIYGGHVISLARTLSFNGLANAQMIVALNAGAHANPCFAGDTVRAWSEVLDKAETADPGVGALRLRLVAMKHGTEPFVTRSEDGKYLPGVLLDLDYWALVPR | failed |
| MQKKNFWQIYFGKDPFSKAEFIKAWIGWWVIAIVLLGVLSICTSLNLRGIGIALGFGFCQIHARYLTFVGWNKFIGVLGVFPVTNIILFIVLLFTKKK | failed |
| MAGSVACRLRPGMAAGGTGMKRYVIFAAIGPLIGGLLLLFATTYQSGYWAHTNLTEVQKFFVVLFKSLQYSYLFGLLPALMMAAIDEIICHIRRVGPGGRVVIVGVIGFLATAFMYGNRGADAGVLQFVLYGLVGLVPATLSSWLANKFCAPVTAETKPASA | failed |
| MRLLHTSDWHLGRSFHGVGMLDAQRNFVDQLVSLVQSKSVDVVLIAGDVYDRALPGLDVVKLLDDALVRITQAGAGVVLTSGNHDSAIRLGFASRLLERGGVHLRTKVEDIDVPVLFPLGGDENAKNSTLNGQVVVYGIPYLEPRLVAERLGAENANHFDVTLAAVERIRRDVEARRASGPVYPVVLAHTFASGGITSESERDLSIGGLGAVPLDLFDDFAYTALGHLHGRQELAPHVRYSGSPLAYSFSEAKHHKGAWLVDLDAGGVIAVEEVLWEAPKALATLRGTLDDLLGAEEHAWAENAYCQITLTDTQRPAQAMERVRTRFPDTLVLSFDPQGAAARTSTSYSNRLAEAEDDLGVCCGFLDHVRDRDASDAEEAALREALEAVRLQEAEL | failed |
| MTKHFLPRRTRKRRPEPLVKVRIDPPKLPKIRLLPRRAPRPRRPEPLVKVRIDPPRIRLPRIRRPRLTPFRERNPVVIGAVGLTFLALLTVAAFNADSLPLIGGGETYSAAFSEAGGLKPGDEVRIAGVKVGKVKDVDLDGDHVKVTFKIKGDPGFGTETGASIRVKTILGAKYLALRPKGPGQLKPGSEIPLKRTVPAYDVVQAFSDLTTTTEKVDTDQLAKALDTISTTFQDSPAEVRASIKGLSKISRTVASRDKALGELLDHANGVTGVLAEHSEDFTALVKDGGKLFKEISKRRKAIHKLLKSSAALGIELSGLVEDNDKEIGPALKGLNRVVQMLERNQSSLDRSVKLLAPYVRVFTNALGNGRWFDSYVQNLVAAPVVPRTGGAQ | failed |
| PKSQACEPSEPEIEIKLPKLRTLDVFSGCGGLSEGFHQAGISDTLWAIEMWDPAAQAFRLNNPGSTVFTEDCNILLKLVMAGETTNSRGQRLPQKGDVEMLCGGPPCQGFSGMNRFNSRTYSKFKNSLVVSFLSYCDYYRPRFFLLENVRNFVSFKRSMVLKLTLRCLVRMGYQCTFGVLQAGQYGVAQTRRRAIILAAAPGEKLPLFPEPLHVFAPRACQLSVVVDDKKFVSNITRLSSGPFRTITVRDTMSDLPEVRNGASALEISYNGEPQSWFQRQLRGAQYQPILRDHICKDMSALVAARMRHIPLAPGSDWRDLPNIEVRLSDGTMARKLRYTHHDRKNGRSSSGALRGVCSCVEAGKACDPAARQFNTLIPWCLPHTGNRHNHWAGLYGRLEWDGFFSTTVTNPEPMGKQGRVLHPEQHRVVSVRECARSQGFPDTYRLFGNILDKHRQVGNAVPPPLAKAIGLEIKLCML | failed |
| MNFAGQPLQDGSLPRIGTGKDALSLLDLSDFVARHWRFIGLVTVFVMALALAYLAAAPSRYTAQTDMIIDTKRVTWTQSEFATENRMVEDASVESEIETTKSEKVALQVIRKLRLTEDPEFIGSGTGLRNRLYQLLDLDAPISPQLTPSELEARALSRVKDNLKVMRLGRSYIEQISFTSLVPEKAAVIANAFADAYIEDQIQAKFEATRRASEWLQQRIGELRQQASDAYRAVQDFKSSNSIIVSGDGKLASDLELDQLGISLAKARAETSQARAKLERITRVLELRQEKGSNEIPDPVVTDALSNPVITRLRQQYLDNQSKEAEWSSRYGAEHQAARNLRSEMANVRQAIWDEVSRIAESYRSEVQIAKTQEDSIDKRMIEVFQSSTGTRQAQVHLRELETAATTYRGIYETFLTRFTQSVQQQSFPSTEARVVTLASPPSVRSSPKTNLTLALAAISGLTLGILGAFARDRMSRRIHTRAQLETILGTSCLAIIPSFANPALTSQTSTSSSRLSRAVKQLLRKRDHVPGQPRERSQANSAAFEKINDVAPFSATAEALRHIKVAIDLSPGGGRVIGIVSARPGEGKTTICASFAAFLARSGARTLLIDGDLRNPSLSRTLGYKNKRGLLELVADQLQLSDLVVTDPVYKFDFLPSATEMKPINSADVLTSPSVKRMLKSAAGNYDYIIVDLPPILPVVDVKAAAHLFDAFVLVVEWGATMSDEVRSAVGVSRSLSERLLGAVLNKTDEDVMRRLEGYSYRSHHYYYYGAPKHENEQTKN | failed |
| MPESRVKSEPSPAPYWRRNVRLIVLLLACWAGLTFVPAYFARQLAFDFIGWPFSFWMAAYGAPLAYLILIVIYALVMNRFDARSRTRRDD | failed |
| MSEVILDIMNNELVSSLILRELIQYRRRFTHSTKSVSEEESQVTQVQLPRIRTFVDEGRRVELILPAFPVKSPSPYKVLGRMPDMAERLSLIFLNSLCQRIQLYYPPGAHIRICSDGHVFGDLIGTSDETINTYQDEIENLLHELGAVHLSVFNLKDVENMAALTADYGHLRQRLVEDYAESAEEIKEQLMQSEEGLQLYRSITRFLYEDSLRPDYTGSNAALQKDAKKRACGVIQRSWAWGNLLAENFPDAIRLSIHPQPADSLKLGIHMMPTKDDWLTPWHGVAANVNGQFVLMKNTDAQQLAGEVVEIRGTPSHYLVKQSDVA | failed |
| MLERILEPEVMDTEAEAMDYDAMDFQAVNLAFAQRACQLGPSKATVLDAGTGTARIPILLAQLRPAWQITAIDFARSMLAIAKENVIAAGCETQICLEFVDAKQLPYANGSFDGVIANSLCHHLPRPLDFLREVKRVLKPHGFLLIRDLIRPESPEKLADFVTAIGSDYNDQQRKLFADSLHASLTIAEIQDYLQHLGWVGDDGPNLELHLYQSSDRHWTLEKKFQSSTIVQR | failed |
| MTRPIGIYEKATPKHFNWLERLQFAKELGFDFVELSIDESDERLARLEWSKEERLELVKAIFETGVRVPTITFSGHRRFPMGSNNPEKEARAMDMMKKCIVFAQDIGIRNIQLAGYDVYYEEKSPETRARFIKNLRQACTWAEEAQVILSIEIMDDPFMNSIEKYLAVEKEIDSPYLFVYPDTGNVSAWHNDLWSEFYNGHRSIAALHIKDTYAVTETSKGQFRDVPFGQGCVDWEEMFAVIKKTNYNGPFLIEMWSENCETVEETRAAIKEAQDFLYPLMEKTGVK | failed |
| GAEKEDLVQEGILGLLKAIKFYDETKSSFSSFAFLCIRREMISAIRKANTQKHMVLNEALKTNAILEDSAYFDDEGHNINNYKSSESNPEEAYLLKEEIEEFKKFSENNFSKFEKEVLTYLIRGYSYREIATILSKNLKSIDNTIQRIRKKSEEWIKEEENIKR | not failed |
| MKKIFYISLGFISLGIGIAGIVLPVVPTTPLVLLSAFCFSRSSEKFDIWLRQTKVYKYYAADFVESRSIAPARKKSMIWQIYILMGISIYFAPLMWLKLGLLIGTIVGTYVLFYVVPDKIDE | failed |
| MVTGYEALERHRGVRRPRRKLSRREKHAWKKAQKYELKLHKAHEKEERKLAKQAAKQAAREEKAAQKQAKKAERHKKKTKPPGSVKSSGKKGVAKKISSTNKDSRNKGKNITAQQSIPYREMGKDGICRVEDGYYSKTIRFYDINYQLAQNEDKNAIFENWCDFLNYFDSTIHFQLSFINHHSNMTEYEDVIRIKKQNDSFDDLRMEFAQMLRNQLAKGNNGLIRTKYITFGIEADNIREAKPKLERIETDILNNFKVFGVSAYPLNGAERLQIMYETFNQNVKVPFRFSYDDMLRTGLNTKDYIAPSSFLFKNGKDFQMGDTVGAVSYLQILAPELTDKMLAEFLEMDCNLLVNLHIQSIDQMKAIKLVKSKVTDINRMKIEEQKKAVRSGYDMDIIPSDLNTYGGEAKRLLEDLQSRNERMFLVTVVFLNTAKNKQELENVVFQTAGIAQKYNCALKRLDYQQEQGLMSSLPLGRNWIPIKRALTTTSTAIFVPFTTQELFMGGESIYYGLNALSNNLIMADRKKLKNPNGLILGTPGSGKSFAAKREITNVFIVTKDDIIICDPEGEYFPLVRAFNGQVIRISPTSHDYINPMDININYADDDDPLSLKSDFILSLCELVVGGKNGLEPVEKTIIDRCVRLVYQDYLADPVPEKMPILEDLYNLLRKQEEAESQRLATALEIYVNGSLKVFNHRTNVELNNRLVCFDIKDLGKQLKKLGMLIVQDQVWNRVTVNRSAHKSTRYYIDEFHLLLKEEQTAAYSVEIWKRFRKWGGIPTGITQNVKDLLASREIENIFENSDFILMLNQASGDRQILAKQLNISTHQLSYVTNSGEGEGLIFYGNTIIPFKDRFDNTLMLYALMSSKPEDVEKREKLGIKGRDDS | failed |
| MNEADYLRLLTRQAEQANDFLSNARKWDRERWVCQRFLEALNVPYRQEDFAAPGEQPPDVLFKGAGFEVFFVLDEGRRLNEEWREELTRRRQAVSLRQLIRREERPQRIAAAELQARLAPTLRKKAHNYSERGIDHGELDLLAFVNLKRAVPDFNTPFPPPTEYLRQGWRSLSMVGPTFARVLFAHSGAPEFLRANLGRSILFDAGVGL | not failed |
